Measured values: the supplement of paper PMC10567573

B1: FAM50A (parent)
chain: KKREKQREQMEQMKQRIAEENIMK
B2: SCNN1D (parent)
chain: FYRLYQDLETHRLPCTSRCPRPCR
B3: RTN2 (parent)
chain: SERPLEDLRLRLDHLGWVARGTGS

Variants of: B1
Test: protein stability index of a GFP-peptide fusion (GPS, HEK-293T) (PSI 1-6); higher = more stable
Conditions: c terminus: a fixed tail appended
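Further: lentivirally expressed fusions sorted by FACS into six bins by GFP to DsRed ratio, PSI derived from sequencing read proportions per bin multiplied by bin number.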

Protein stability index, by site and new letter:
K2: A 4.57; F 4.45; L 3.67; E 5.04; C 4.76; H 4.98; G 4.55; D 4.34; I 4.63
K1: R 4.48; Y 4.95; H 4.95; T 5.07; I 4.98; E 5.1; W 4.46; L 4.62; F 4.22; D 4.87; V 4.71; N 5.42; M 4.67; S 5.14; A 4.71; Q 5.15; G 4.9; C 4.67; P 5.52

Variants of: B2
Test: as above
Conditions: c terminus: a fixed tail appended

Protein stability index: each site, then its substitutions
Y5: G 3.16
R24: W 1.3
R3: H 2.38; K 2.58; N 2.22; S 2.42
T10: R 2.88; I 2.44
C19: R 2.21
T16: F 1.58
L8: R 2.22; N 3.07
S17: W 1.02
H11: I 1.39; C 2.62; W 2.05
D7: R 2.89; N 1.89; Q 1.48
C15: D 2.24
R18: Y 1.78; D 1.78
P20: T 2.88
P14: I 1.53
F1: D 3.8
E9: D 2.99
R12: I 1.42
L13: A 2.42; D 2.19
P22: C 3.11; N 2.72; Y 1.32; H 2.38; T 2.25

Variants of: B3
Test: as above
Conditions: c terminus: a fixed tail appended

Protein stability index of substitutions, site by site:
G16: E 3.03; Y 2.9; F 1.98; P 2.1; I 1.75; Q 3.01; W 1.81; V 1.55; A 2.58
G23: L 2.44; A 3.6; N 2.98; C 2.4; E 3.99; K 3.55; T 3.04; M 1.87; H 2.6; P 3.34; S 2.61; F 2.52; I 3.35
E6: S 1.93; H 2.34; M 2.29; W 1.62; I 1.71; D 1.68; G 2.35; Q 2.49; C 2.72; V 2.63; F 2.78; P 2.15; N 2.24; A 2.27; T 1.29; K 1.53
L8: Q 1.47; W 1.87; H 2.16; A 2.73; D 2.32; K 2.83; V 1.64; I 2.44; F 1.96; E 3.52; N 2.13; Y 2.35
D13: H 1.49; C 2.43; Y 2.07; V 2.88; F 1.07; G 2.87; S 3.31; T 2.34
A19: K 3.34; W 2.3; H 2.9; L 1.97; D 3.31; T 3.5; P 3.78; C 2.58; E 2.96; G 3.39; N 3.34
H14: R 2.36; E 2.61; W 1.92; I 1.99; F 1.51; P 2.54; L 1.93; M 2.47; T 1.99; Q 1.73
S1: C 1.88; L 1.76; W 2.46; M 2.73; N 2.57; E 2.74; P 2.66; G 2.87; I 3.02; K 2.61
P4: W 1.73; K 2.38; E 2.61; R 1.59; Q 2.95; V 1.26; F 3.68; L 1.94; D 2.53
L5: P 2.07; S 2; M 2.46; I 2.52; W 1.97; V 4.48; F 3.45; N 1.48; Y 2.53; D 3.44; T 2.38; G 2.33
L15: C 2.15; W 3.5; T 2.26; A 2.88; F 2.8; I 2.28; E 2.25; M 1.89; Q 2.1; Y 2.59; G 2.97
R20: P 3.31; L 1.85; C 1.86; E 4.02; Y 2.34; K 3.19; M 3.12; S 4.23; N 3.55; F 2.36; T 3.14; H 2.77; Q 3.32
D7: G 1.96; A 1.94; M 1.02; W 1.29; T 1.88; Q 1.43; V 1.9; R 1.79; H 1.87; N 1.99
E2: G 2.28; L 1.42; F 2.9; Y 2.68; S 2.43; N 1.68; A 1.99; I 2.12; H 2.19
R11: C 1.52; W 1.4; Y 2.7; N 2.58; T 2.28; Q 2.9; I 1.41; A 1.92; F 1.79
L10: T 1.93; R 2.19; N 2.69; P 1.74; G 3.89; E 3.15; A 2.46; S 3.19; H 2.38; M 2.39; C 2.73; F 3.78; K 2.06; D 2.72
W17: Y 3.48; M 3.49; G 4.08; N 4.65; E 4.11; Q 4.42; A 4.49; H 3.9
S24: D 2.59; Q 2.61; R 2.36; W 2.11; E 4.04; H 2.03; M 1.76; T 2.71; Y 2.12; N 3.26; V 3.15
L12: K 3.13; P 2.47; R 2.16; W 2.38; T 3.51; A 2.97; Y 3.11; I 2.02
R3: F 2.18; A 3.86; K 1.63; C 2.4; D 2.82; N 2.48; H 2.76; Y 1.86; Q 2; W 1.62; G 2.19; M 2.99; S 2.07; L 2.49; P 3.56
G21: I 1.61; C 1.6; Q 2.78; M 1.96; K 3.71; V 2.09; E 2.05; T 2.08; P 2.33; W 1.68; S 2.68; N 2.83; Y 2.42
V18: D 4.31; I 3.5; T 2.86; H 3.31; P 3.35; M 3.73; N 3.81; Q 3.02; K 3.79; R 4.14; Y 2.67; W 2.8; E 4.85
R9: A 2.34; F 1.63; S 1.2; D 2.31; I 2.17; T 2.27; E 2.85; V 3.31; N 2.84; K 1.92; P 2.1; W 1.64; C 3.37; Y 2.26; M 1.42; Q 2.26; H 2.56
T22: C 2.75; R 3.6; I 2.48; Y 2.79; L 2.11; G 2.23; W 3.11; M 2; H 2.49; N 3.95; F 1.3
